Assay results from the DeepSol protein solubility set.

Test: soluble on expression in E. coli; label from the status in PepcDB or PDB records
With “MSSDDEIYNENNDLDEEFSDDMDQQSGSSGESQGKANYEILDPTALESDMSKTISEVQAILQVEPGICRILLHKFKWNKDRLLDKFYEHSDTTEFLAEAQVIPKTSSSEEAAGSSAPPPGGDAECDVCCSMTRLSGLACAHRACDECWKAYLTEKIVDVGQSEIECMMMDCKLLIEDEKVMSYITDPFVIAAYRKLIISSYVETNSQLKWCPGAGCGKAVKGEPSDREPAVCTCGERFCFACAQDWHDPLSCRHMKMWRKKCSDDSETLNWINANTKPCPKCSVTIEKNGGCNHMSCKSSSCRYEFCWLCLGDWKNHAQCNRYVEDDNKTDSRSLSRKNLQRYLFYYNRFMAHQNSMKLEGKLYAKVEVKMDLMQALSMSWIEVQFLRRAVDALCECRRTLKYAYAFAYYLEANNMTTLFETNQSDLELATEQLSGMLEGDLEDNDLAELKRKVQDKYRYVELRRKKMLDHCAEGVELDSWVFCE” the “soluble on expression in E. coli” value was “not soluble”. In the case of “MVLADGELTVLGRIRSASNATFLCESTLGLRSLHCVYKPVSGERPLWDFPDGTLAGRELSAYLVSTQLGWNLVPHTIIRDGPAGIGMLQLWVQQPGDAVDSDPLPGPDLVDLFPAHRPRPGYLPVLRAYDYAGDEVVLMHADDIRLRRMAVFDVLINNADRKGGHILCGIDGQVYGVDHGLCLHVENKLRTVLWGWAGKPIDDQILQAVAGLADALGGPLAEALAGRIAAAEIGALRRRAQSLLDQPVMPGPNGHRPIPWPAFLEHHHHHH”, the “soluble on expression in E. coli” value is reported as “not soluble”. With “MNKIETDTLLLPVIGESPAGDDIEYDPVYSEIREARQNDPDYMSQGEWAVSEPRRADWRKVRKLCEVTLRNKSKDLQISCWYVESLTHLYALEGMHCGLEYLAKFISQYWTTCWPSQEEGQEIRYSKLVRLDIDLSEYLKAYPLLEDKEITLSEWYKVLSFEHGASLSEAGKERLIESEGDHSVESFKRAVGKYNPRKVSEQLLQLYDLPDKIDEIESSYFFHTHEDIHHIFAKTRHIISEITELLSRFLPQETLDHSSVSQFLGKPDSRDTRTALPEEKKEFYSALTPSTDKEMSREKAIEQLEKIAIFFRQSEPTSPVPYLLERAIRWSTMTMSEWLEELLKDNDSMEQINRVLKG” the “soluble on expression in E. coli” value was “not soluble”. For “MSLEKLSHGLVTSRNMIRYKSSQLPERVLQFGEGNFLRGFIDWMIQQMNKQNVFNGRVVAIQPTPHGKVVPKLQEQDSLYTVWLRGIADGETVDHHEVITSISRGLNPYTNWQDVLEVAASPDISVVFSNTTEAGLTYLEEGYDKEKAPLSFPGKLAACLWHRYETLGWGEGSGLVIIPCELVEQNGKVLKELVCRYAKAWNFPQEFFTWLERENEFCHTLVDRIVPGFPSDTADECFERLGYEDILLTVAEPYHLFIIEGSERVRKLLPFNEAGLHVRWNHLEKHRNMKVRVLNGTHTFMFALSYLSGVDTVGEAMADEQLCSFIRKGLFEEIIPCVDAPEQEVTAFAETVLERFENPFLQHRLTDIGLNAVNKFRTRLMPTFNDYVAQTGEAPTYLLFSLAALINYYRGVEEDGPFLIGRRREDSYLIRDDLEVIEAFKVGWQQVNTGKLSLAQLCEDLLSKRELWGVDLSMERKVVDKVAESLQIIVEKGMRQAISGVLNQIGGNNHVHKEGHHHHHH”, the “soluble on expression in E. coli” value was “soluble”. For “MSTGANRILDDLARLMTDAAGAAQGVRREVEAAFRAQTENWLNSLDVVKREEFEAVKEMAARARDENDALLARIEALEARLAATGPAAADITTGK”, the “soluble on expression in E. coli” value was “not soluble”. For “MGSDKIHHHHHHMQPHPETTPVTSCTIIDATDRSIRQTLGETSTLARLIWVDAGLASPPLCSGLARCGRCRVRITEAAPAPHEDDREFFSAEDISAGWRLACRHAPAHGMVVHVPLPVMPHRHASRPKHPGPFRLAVDLGTTSLQWSLLAPDGTVAAQGSETNPQMGAGSDVMSRIAMARSDKGRGRLRELVLQALRRIVADVEGTPATADAVPPAGSGDEPTTACGYESRVEELCVAGNTAMTAILADESVEGLASAPYRLEMRGGTALALPGLPPAWIPPLPAPFVGGDLSAGYLAVLTDHAPAFPFVLADLGTNGEFVLALSPERTLVTSVALGPALEGIGLTFGTVAQRGAITSFTLTPGGLVPYVLDGGEADGISGTGYISLVHALLRAGLLDVDGRFIQSPSSPLAARMARSIVSHRGEPCLPLARGLYLAARDIEEILKVKAAFSLAFERLLATAQMPSHALSGIHLAGALGQHALPADLEGLGFIPPGSGGRTRAVGNTSLRGAELLLTSPPLRDTLNTWREGCTVVDLTAAPDFSAAFLRHMHFHF”, the “soluble on expression in E. coli” value was “not soluble”. With “MGSDKIHHHHHHMVATENRMLMEIAAEISAREATLGFQEVKTKSRSAGLTAAFDIASVFFSSGCNVVVAFDRFASNWSDHSDHVDYAAQVAGFGASMLAYTVRRGQFDTAVRDIRDIKSEVDIPILLHDPIIDPYQIHEARVMGIDALQFPVWAMEQARLESLVDRTESLGMTAIVSVRNHEEAHRAVDAGATVVAIDITGYTGSLTLPEAFSGITQFMPKEVARIVLGGCSSPKELMRFARHSADAIFVPHADLATTKSLVTAGMHPACPSR” the “soluble on expression in E. coli” value was “not soluble”. With “MGSDKIHHHHHHMFEPFPGNYVWNLGINLALIAGGNHGELDEVCRPVREAAKAGADAGSALLFDSWIAVADQVTRNAERDEAEGFLLSAGAKYLRASGYYLGAERLQSRDYAPRWVAYDKGLELYHKGSALSGLHVDKVEIPYEGSSYPAIFVHDGSGTPRPTLVSVNGLDSMKEQVNMAGHGAVNLARGMNTLFLDQPGTGEAIRKRNLPAVFDAERWGSPAFDYLLTRSDVIHSQIGIFGLSFGGYHAPRIAANDPRYALCAVMGANHVWGQRQRERVANEGENPVPHYWDHVMWVFGIDDQAAFLEYADQITLDGQVEKIRVPFLITHGENDRQIPAYNAQMSYDQAVNSPKRTLRIFTRADFEVEHCGADNGTGMRDYIADWCAQTFAEMAGNKG” the “soluble on expression in E. coli” value was “not soluble”. In the case of “MSLRSHFATQKDQWQTYTKEKKIKIGFDATFVPMGYEEKDGSYIGFDIDLANAVFKLYGIDVEWQAIDWDMKETELKNGTIDLIWNGYSVTDERKQSADFTEPYMVNEQVLVTKKSSGIDSVAGMAGKTLGAQAGSSGYDAFNASPKILKDVVANQKVVQYSTFTQALIDLNSGRIDGLLIDRVYANYYLEKSGVLDQYNVMPAGYEGESFAVGARKVDKTLIKKINQGFETLYKNGEFQKISNKWFGEDVATDQVKGKREGHHHHHH”, the “soluble on expression in E. coli” value is reported as “soluble”. In the case of “MAHHHHHHMVLPLPKLIQSNEGRVLYHVTNHPIRTIKKKIEGFFKYESLDNLNSEISVRQNFDELFVPLTHPARNIKDTFYLSENYVKHFSTLHNNLYTQLENTNGIYKYYLVTKFVHHHNILLKRTHMTAHLPDLLRRNYKNVIYTGSVYRRDEIDRFHFPIFHQTDGFLIRPDNFDVETDLKKNLEQLIRYLFDASDVQMKWEDNTSFPFTDPSYELYIRGESSKEIRTTGDDIGGESRWVEVLGCGKIKKEVIAMAMHAEDIRQIIEDEIARHDRGLLDELQSIETAVNEAAVNEAAVNEGATNEGAVNEGATNEAVARKSNVEWIYPNVPTPKDILDKLCTTTLNNRIEAQMNKFLKTIRYQGWAFGIGLERLAMLLYHIQDIRLFWSNDNRFIDQFEEGVITTFHPFSNFPPVEKDISFYITSQFKEDLFFQICRDVASENIEQVKKIDSYHNPKNNQTSVCYRITYRSHTQNLTHKTVNEMQSKIVQMLVKQCAVTIR”, the “soluble on expression in E. coli” value is reported as “not soluble”. With “MNSDAEMNTEDGGSSPEEFGEADCFSEEEDEEIVLDTSDNDTSYAKEDKKSENEVLDNDLLEAEMNTTIADVQAVLQVDPGVCRILLHKYKWNKESLLERLYEHPDTIAFLIDAQVIPRQQEVIPAGDAECDICCSMDELSGLSCNHRACAECWQAYLTNKIVSDAQSEIECMAPNCKLLIEDEKVLAYIKDPTIIAKYRKMMVASYIEINALLKWCPGVDCGRTVKVSHGEPRLVVCTCGSRFCFSCGQDWHEPVNCRLLKLWMKKCNDDSETSNWINSNTKECPKCMATIEKNGGCNQITCKNTGCKFQFCWMCLGPWTVHANAWYKCNKFDDEASQTARTAQELYRANLTRYLFYYNRYMGHLQSLRLEGKLNKTVKAKMDQMQNLSMSWIDVQFLRKAVDVLSECRNTLMFTYIFAFYLKRDNNSMIFESNQKDLEMETEQLSGLLERDLENEDLLTLKQKVQDTFRYVEHRRKVLLDHCAEGTEQDIWQYNE” the “soluble on expression in E. coli” value was “not soluble”. With “SQAPHKEHLYKLLVIGDLGVGKTSIIKRYVHQNFSSHYRATIGVDFALKVLHWDPETVVRLQLWDIAGQERFGNMTRVYYREAMGAFIVFDVTRPATFEAVAKWKNDLDSKLSLPNGKPVSVVLLANKCDQGKDVLMNNGLKMDQFCKEHGFVGWFETSAKENINIDEASRCLVKHILANECDLMESIEPDVVKPHLTSTKVASCSGCAKS” the “soluble on expression in E. coli” value was “soluble”. With “VGEVNLSARGNFTFARNEILEYDQVPQVYPWLEKKGTRLNSWKLYIADGLYTADDFNITGEGLNRQYELKPGVVSGLSSGVRPGDIKYKDLNGDGKIDSNDQMEDVGNPSVPEIVYGFGLNAEWKGAYVGIFFQGSGNTSTVLGASSNGAFFPFQWGVEESAVRSEVANRWTEQNPSQNVMFPRMHSTNYDNNTAASTWWLRNASFLRLKNIEVGYNFKEKTLKKIGIQALRVYLQGNNLCVWDDIKMWDPELGNTNGGFSYPLSRTFTFGLDFTF” the “soluble on expression in E. coli” value was “not soluble”. For “MAHHHHHHMSSSVKDILLEGSTCSTDMKLNDFLRSKLGGRGVVDTNEKVAMEMFVQDPETFIQNERLLRIITASPSYQELERELDEMKILLEAINKLHDEDVFSLEQWRGYEGKDTVTPLARGKINGVLTHVLREERRWAEERAVREKQVELTLTTTIEDVLFRGRVRVKDMKLNDFITMEMEGRGILRANRNVLLKEFFKDPTRYIHDAGVLNEIQASDAYLMAERAVRDEMDMEKDLRKLYKNGVSNLFGWSVASAEIRASVRDITKSFLDAALEEARKPTTTIAPIKMEGLYESVYNARWHHVVEVPGGEGTGMEVKKGRPPQQWTYKKVGYCLERDDGAEQYGAARLRLMVLASDKGRAVLVGGD”, the “soluble on expression in E. coli” value was “not soluble”. In the case of “MTMKGGVASQDFSAAIATACEPAANVWSKVCVALKRELGDAAFGSWIAPAMLREAATGDVVLVTSTGIARDWIRRSAWRRIGELWAAHDATGRRIDLKSRLEFEAAAGAYVEATPKAVAAEPIEIVLPVSTDAPTVVAPSAKSPRTQGLQERFTFETFVPGPANEFAHAVARRIANWADGHFNPVLFHGPYGFGKTHLLNALAWEAMRNAPEKRVVYLTAERFLSTFVRAVMDRQTAAFKEELRAADLLIIDDVHFIAGKQSTQEELFHTLTALVGEGGRVVFSADRPPSAMTEMDAHLRSHLSAGLVCGLEPADRNLRLGILERKIQTLGAAHGFEPSIRPEVMQFLADRFTDSVRELEGALNTLSARAGEGLSRMTLDEVQAILRPHLRSGEKRITIDDIQKATAEHYGMKQADLLSERRNRAVARPRQAAMWLAKQLTTRSLPDIGRRFGGRDHTTVLHAVRRIEALRAEDSALSHDLETLTRKLRGLEHHHHHH”, the “soluble on expression in E. coli” value is reported as “not soluble”. In the case of “SRFADAVLDQYIGSIHSLCKDQHGCRFLQKQLDILGSKAADAIFEETKDYTVELMTDSFGNYLIQKLLEEVTTEQRIVLTKISSPHFVEISLNPHGTRALQKLIECIKTDEEAQIVVDSLRPYTVQLSKDLNGNHVIQKCLQRLKPENFQFIFDAISDSCIDIATHRHGCCVLQRCLDHGTTEQCDNLCDKLLALVDKLTLDPFGNYVVQYIITKEAEKNKYDYTHKIVHLLKPRAIELSIHKFGSNVIEKILKTAIVSEPMILEILNNGGETGIQSLLNDSYGNYVLQTALDISHKQNDYLYKRLSEIVAPLLVGPIRNTPHGKRIIGMLHLDS”, the “soluble on expression in E. coli” value is reported as “soluble”.
